Assay results taken from patent publication US20120039878A1.

Biological target: murine monoclonal antibody 2A4 (ATCC Accession Number PTA-9662)
Assay: Competition ELISA; mouse AA (AEF) in solution competing with adsorbed human AA amyloid extract for mAb 2A4

murine AA amyloid (AA fibrils; amyloid enhancing factor extract, AEF), sequence (P05367 20-94): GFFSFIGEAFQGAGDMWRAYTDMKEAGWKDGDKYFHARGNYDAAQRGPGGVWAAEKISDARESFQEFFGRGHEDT
murine monoclonal antibody 2A4 (ATCC Accession Number PTA-9662), sequence (VL, as listed by the source, chain 1 of 2): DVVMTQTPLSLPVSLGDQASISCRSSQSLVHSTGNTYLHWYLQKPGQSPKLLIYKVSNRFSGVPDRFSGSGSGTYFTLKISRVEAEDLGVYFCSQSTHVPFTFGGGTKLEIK
murine monoclonal antibody 2A4 (ATCC Accession Number PTA-9662), sequence (VH, as listed by the source, chain 2 of 2): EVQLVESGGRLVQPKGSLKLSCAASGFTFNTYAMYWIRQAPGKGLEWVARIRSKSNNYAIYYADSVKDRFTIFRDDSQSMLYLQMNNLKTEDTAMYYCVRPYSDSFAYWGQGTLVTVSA

IC50: 14.7 µg/mL
Substance: murine AA amyloid (AA fibrils; amyloid enhancing factor extract, AEF)
